From paper PMC8260793, “A split protease-E. coli ClpXP system quantifies protein–protein interactions in Escherichia coli cells” (Communications Biology, 2021) come the findings set out here.

Assay [1] deals with Csy4 of Z. mobilis Type I-F CRISPR/Cas complex. The experiment in a line: SPEC system (split protease-E. coli ClpXP) in E. coli cells. The conditions noted are these: parent: 100; read off a plot.
The target in assay [2] is Csy3 of Z. mobilis Type I-F CRISPR/Cas complex. Described as above. The conditions noted are these: parent: 100; read off a plot.
For assay [3], the target named is Csy3 of Z. mobilis Type I-F CRISPR/Cas complex (Zymomonas mobilis). The experiment in a line: split reporter (BiFC, NanoBiT); SPEC profiling of CRISPR/Cas effectors and Cas3 / Cas2-3 mutants in E. coli cells; sfGFP fluorescence by flow cytometry; interaction intensity normalized to cells expressing wt HRV 3 C protease.
Assay [4] has as its target Csy4 of Z. mobilis Type I-F CRISPR/Cas complex (Zymomonas mobilis). The description is as above.
Assay [5] has as its target Csy2 of Z. mobilis Type I-F CRISPR/Cas complex (Zymomonas mobilis). The assay is described as above.
In assay [6] the target is Csy1 of Z. mobilis Type I-F CRISPR/Cas complex (Zymomonas mobilis). The description is as above.
Assay [7] concerns the target Cas1 of Z. mobilis Type I-F CRISPR/Cas complex (Zymomonas mobilis). Described as above.
In assay [8] the target is Csy2 of Z. mobilis Type I-F CRISPR/Cas complex. The assay can be described thus: SPEC system (split protease-E. coli ClpXP) in E. coli cells. The conditions noted are these: parent: 100; read off a plot.
Assay [9] deals with Cas1 of Z. mobilis Type I-F CRISPR/Cas complex. The description is as above. The conditions noted are these: parent: 100; read off a plot.
Assay [10] has as its target T1, Cas7 of E. coli K12 Type I-E CRISPR/Cas complex (E. coli K12, UniProt Q46899 1-363).
T1 construct: Cas7, effector of the type I-E CRISPR/Cas complex of E. coli K12; source: E. coli BL21(DE3) or BL21(DE3)-SPEC, expressed in the cells (IPTG induction)
T1 sequence (looked up): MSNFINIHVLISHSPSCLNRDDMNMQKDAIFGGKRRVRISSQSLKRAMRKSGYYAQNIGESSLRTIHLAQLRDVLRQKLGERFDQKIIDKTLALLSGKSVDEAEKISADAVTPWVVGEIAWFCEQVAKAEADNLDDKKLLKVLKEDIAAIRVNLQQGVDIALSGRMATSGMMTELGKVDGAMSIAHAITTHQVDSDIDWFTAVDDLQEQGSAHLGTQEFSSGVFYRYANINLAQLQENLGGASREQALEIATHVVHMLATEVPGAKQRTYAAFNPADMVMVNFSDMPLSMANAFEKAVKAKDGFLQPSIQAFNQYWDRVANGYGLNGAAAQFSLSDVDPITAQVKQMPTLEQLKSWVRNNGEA
The assay can be described thus: split reporter (BiFC, NanoBiT); SPEC profiling of CRISPR/Cas effectors and Cas3 / Cas2-3 mutants in E. coli cells; sfGFP fluorescence by flow cytometry; interaction intensity normalized to cells expressing wt HRV 3 C protease. The conditions noted are these: partners not purified.

Assay [11] has as its target T2, Cas5 of E. coli K12 Type I-E CRISPR/Cas complex (E. coli K12, UniProt Q46898 1-224).
T2 construct: Cas5, effector of the type I-E CRISPR/Cas complex of E. coli K12; source: E. coli BL21(DE3) or BL21(DE3)-SPEC, expressed in the cells (IPTG induction)
T2 sequence (looked up): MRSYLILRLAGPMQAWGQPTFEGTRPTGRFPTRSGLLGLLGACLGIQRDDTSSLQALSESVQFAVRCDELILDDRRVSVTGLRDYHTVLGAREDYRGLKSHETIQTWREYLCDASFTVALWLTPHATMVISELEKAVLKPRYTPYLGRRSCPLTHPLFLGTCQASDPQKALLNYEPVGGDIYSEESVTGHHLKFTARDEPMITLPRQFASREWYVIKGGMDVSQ
The assay is described as above. The conditions noted are these: partners not purified.

Assay [12] deals with T3, Cas2 of E. coli K12 Type I-E CRISPR/Cas complex (E. coli K12, UniProt P45956 1-94).
T3 construct: Cas2, effector of the type I-E CRISPR/Cas complex of E. coli K12; source: E. coli BL21(DE3) or BL21(DE3)-SPEC, expressed in the cells (IPTG induction)
T3 sequence (looked up): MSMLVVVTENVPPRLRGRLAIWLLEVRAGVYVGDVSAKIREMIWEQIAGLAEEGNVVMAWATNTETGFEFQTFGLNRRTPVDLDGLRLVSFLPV
The assay is described as above. The conditions noted are these: partners not purified.

For assay [13], the target named is T4, Cas11 of E. coli K12 Type I-E CRISPR/Cas complex (E. coli K12, UniProt P76632 1-160).
T4 construct: Cas11, effector of the type I-E CRISPR/Cas complex of E. coli K12; source: E. coli BL21(DE3) or BL21(DE3)-SPEC, expressed in the cells (IPTG induction)
T4 sequence (looked up): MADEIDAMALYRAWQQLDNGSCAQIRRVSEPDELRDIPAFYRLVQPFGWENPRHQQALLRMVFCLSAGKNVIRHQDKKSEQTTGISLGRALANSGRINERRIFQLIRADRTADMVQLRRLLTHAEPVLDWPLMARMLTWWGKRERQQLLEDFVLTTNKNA
Described as above. The conditions noted are these: partners not purified.

Bounds are passed on as bounds.

As for “Cas2-3 of Z. mobilis Type I-F CRISPR/Cas complex K127A”, the percent of parent in assay [1] and in [2] was 110% throughout.
As for “Cas2-3 of Z. mobilis Type I-F CRISPR/Cas complex (natural protein)”, the normalized interaction intensity in [3] is > 80%; in [4], > 80%; in [5], 88%; in assay [6], 63%; in assay [7], 99%.
Regarding “Cas2-3 of Z. mobilis Type I-F CRISPR/Cas complex H123A”, the percent of parent in assay [1] and in assay [2] was 110% each time.
As for “Cas2-3 K127A (Z. mobilis Type I-F) (natural protein)”, the normalized interaction intensity is 21% in [5] and 10% in [6].
In the case of “Cas2-3 of Z. mobilis Type I-F CRISPR/Cas complex K458N”, the percent of parent in assay [1] was found to be 110%; in [2] it was 120%; in assay [8], 110%; in [9], 97%.
Take “Cas2-3 D124A (Z. mobilis Type I-F) (natural protein)”: the increase of the interaction over Cas2-3 wild type in [6] was > 40%.
For “Cas1 of Z. mobilis Type I-F CRISPR/Cas complex (natural protein)”, the normalized interaction intensity in [3] is 14%; in assay [4], > 80%; in [5], > 80%.
Turning to “Cas2-3 K458N (Z. mobilis Type I-F) (natural protein)”, the increase of the interaction over Cas2-3 wild type in [6] was > 40%.
The same measure, in the same setting: the figure for “Cas2-3 H123A (Z. mobilis Type I-F) (natural protein)” is > 40%.
For the molecule “Cas2-3 of Z. mobilis Type I-F CRISPR/Cas complex D608N”, the percent of parent in [1] was 110%; in assay [2], 110%; in assay [8], 78%.
On to “Cas2-3 S639A/T641A (Z. mobilis Type I-F) (natural protein)”, for which, in assay [6], the increase of the interaction over Cas2-3 wild type was > 40%.
On to “Csy1 of Z. mobilis Type I-F CRISPR/Cas complex (natural protein)”, for which the normalized interaction intensity in assay [4] and in assay [5] was > 80% throughout.
Consider “Cas2-3 of Z. mobilis Type I-F CRISPR/Cas complex S639A; T641A”, for which the percent of parent in assay [1], in [2] and in [8] was 110% throughout.
Regarding “Cas2-3 of Z. mobilis Type I-F CRISPR/Cas complex D124A”, the percent of parent in assay [1] worked out at 110%; in [2], 110%; in [9] it was 95%.
For the molecule “Cas2-3 D608N (Z. mobilis Type I-F) (natural protein)”, in assay [6], the increase of the interaction over Cas2-3 wild type was > 40%.

B1: Cas6 of E. coli K12 Type I-E CRISPR/Cas complex (natural protein, UniProt Q46897 1-199, looked up)
chain: MYLSKVIIARAWSRDLYQLHQGLWHLFPNRPDAARDFLFHVEKRNTPEGCHVLLQSAQMPVSTAVATVIKTKQVEFQLQVGVPLYFRLRANPIKTILDNQKRLDSKGNIKRCRVPLIKEAEQIAWLQRKLGNAARVEDVHPISERPQYFSGDGKSGKIQTVCFEGVLTINDAPALIDLVQQGIGPAKSMGCGLLSLAPL
notes: Cas6, effector of the type I-E CRISPR/Cas complex of E. coli K12; source: E. coli BL21(DE3) or BL21(DE3)-SPEC, expressed in the cells (IPTG induction)
Take B1: in assay [10], the normalized interaction intensity is > 80%.

B2: Cas1 of E. coli K12 Type I-E CRISPR/Cas complex (natural protein, UniProt Q46896 1-305, looked up)
chain: MTWLPLNPIPLKDRVSMIFLQYGQIDVIDGAFVLIDKTGIRTHIPVGSVACIMLEPGTRVSHAAVRLAAQVGTLLVWVGEAGVRVYASGQPGGARSDKLLYQAKLALDEDLRLKVVRKMFELRFGEPAPARRSVEQLRGIEGSRVRATYALLAKQYGVTWNGRRYDPKDWEKGDTINQCISAATSCLYGVTEAAILAAGYAPAIGFVHTGKPLSFVYDIADIIKFDTVVPKAFEIARRNPGEPDREVRLACRDIFRSSKTLAKLIPLIEDVLAAGEIQPPAPPEDAQPVAIPLPVSLGDAGHRSS
notes: Cas1, effector of the type I-E CRISPR/Cas complex of E. coli K12; source: E. coli BL21(DE3) or BL21(DE3)-SPEC, expressed in the cells (IPTG induction)
Take B2: the normalized interaction intensity in assay [11] is > 80%; in [12] it was 92%; in assay [13] it was > 80%.

B3: Cas3 of E. coli K12 Type I-E CRISPR/Cas complex (natural protein, UniProt P38036 1-888, looked up)
chain: MEPFKYICHYWGKSSKSLTKGNDIHLLIYHCLDVAAVADCWWDQSVVLQNTFCRNEMLSKQRVKAWLLFFIALHDIGKFDIRFQYKSAESWLKLNPATPSLNGPSTQMCRKFNHGAAGLYWFNQDSLSEQSLGDFFSFFDAAPHPYESWFPWVEAVTGHHGFILHSQDQDKSRWEMPASLASYAAQDKQAREEWISVLEALFLTPAGLSINDIPPDCSSLLAGFCSLADWLGSWTTTNTFLFNEDAPSDINALRTYFQDRQQDASRVLELSGLVSNKRCYEGVHALLDNGYQPRQLQVLVDALPVAPGLTVIEAPTGSGKTETALAYAWKLIDQQIADSVIFALPTQATANAMLTRMEASASHLFSSPNLILAHGNSRFNHLFQSIKSRAITEQGQEEAWVQCCQWLSQSNKKVFLGQIGVCTIDQVLISVLPVKHRFIRGLGIGRSVLIVDEVHAYDTYMNGLLEAVLKAQADVGGSVILLSATLPMKQKQKLLDTYGLHTDPVENNSAYPLINWRGVNGAQRFDLLAHPEQLPPRFSIQPEPICLADMLPDLTMLERMIAAANAGAQVCLICNLVDVAQVCYQRLKELNNTQVDIDLFHARFTLNDRREKENRVISNFGKNGKRNVGRILVATQVVEQSLDVDFDWLITQHCPADLLFQRLGRLHRHHRKYRPAGFEIPVATILLPDGEGYGRHEHIYSNVRVMWRTQQHIEELNGASLFFPDAYRQWLDSIYDDAEMDEPEWVGNGMDKFESAECEKRFKARKVLQWAEEYSLQDNDETILAVTRDGEMSLPLLPYVQTSSGKQLLDGQVYEDLSHEQQYEALALNRVNVPFTWKRSFSEVVDEDGLLWLEGKQNLDGWVWQGNSIVITYTGDEGMTRVIPANPK
notes: Cas3, effector of the type I-E CRISPR/Cas complex of E. coli K12; source: E. coli BL21(DE3) or BL21(DE3)-SPEC, expressed in the cells (IPTG induction)
As for B3, the normalized interaction intensity in assay [11] was > 80%; in assay [12] it was 56%.
